From patent US7323170

Molecular target: human B7.1, membrane associated (human) (UniProt P33681)
Assay: cell-based or functional assay

Sequence of human B7.1, membrane associated (human) (P33681 35-288): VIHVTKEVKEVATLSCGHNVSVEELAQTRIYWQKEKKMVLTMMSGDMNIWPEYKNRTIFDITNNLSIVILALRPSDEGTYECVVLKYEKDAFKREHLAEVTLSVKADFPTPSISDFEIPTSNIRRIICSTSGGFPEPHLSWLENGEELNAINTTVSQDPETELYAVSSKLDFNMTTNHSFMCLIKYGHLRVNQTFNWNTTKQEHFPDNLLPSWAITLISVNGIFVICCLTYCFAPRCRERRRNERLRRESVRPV

murine anti-B7.1 monoclonal antibody L307.4
inhibition of IL-2 production in mixed lymphocyte reaction (concentration at which inhibitory): 10 µg/mL
